Reference: publication PMC9482650, “Quantitative fragmentomics allow affinity mapping of interactomes” (Nature Communications, 2022)

T1: GRIP1_3, Q9Y3R0
T1 sequence (Q9Y3R0 247-346, limits assumed, looked up): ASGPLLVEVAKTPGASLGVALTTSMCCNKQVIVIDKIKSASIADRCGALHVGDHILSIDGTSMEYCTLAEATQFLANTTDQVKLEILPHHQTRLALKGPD

T2: GRIP1_7, Q9Y3R0
T2 sequence (Q9Y3R0 999-1096, limits assumed, looked up): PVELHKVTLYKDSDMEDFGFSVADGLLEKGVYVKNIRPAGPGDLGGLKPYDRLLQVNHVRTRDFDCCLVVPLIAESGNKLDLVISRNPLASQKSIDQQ

T3: LRRC7, Q96NW7
T3 sequence (Q96NW7 1440-1537, limits assumed, looked up): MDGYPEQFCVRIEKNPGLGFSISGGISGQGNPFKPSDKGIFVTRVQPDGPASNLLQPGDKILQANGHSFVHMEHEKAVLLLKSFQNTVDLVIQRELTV

T4: MPDZ_5, O75970
T4 sequence (O75970 695-796, limits assumed, looked up): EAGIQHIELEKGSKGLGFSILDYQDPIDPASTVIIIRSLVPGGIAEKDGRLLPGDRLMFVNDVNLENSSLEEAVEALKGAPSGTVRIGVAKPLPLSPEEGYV

T5: MPP7, Q5T2T1
T5 sequence (Q5T2T1 134-230, limits assumed, looked up): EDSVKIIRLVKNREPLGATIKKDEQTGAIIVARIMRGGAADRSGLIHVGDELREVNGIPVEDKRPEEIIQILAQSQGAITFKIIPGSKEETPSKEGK

T6: NHERF3_3, Q5T2W1
T6 sequence (Q5T2W1 238-333, limits assumed, looked up): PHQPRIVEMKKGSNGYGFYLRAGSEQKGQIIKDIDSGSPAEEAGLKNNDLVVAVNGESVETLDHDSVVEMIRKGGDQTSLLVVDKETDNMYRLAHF

T7: NHERF3_4, Q5T2W1
T7 sequence (Q5T2W1 373-468, limits assumed, looked up): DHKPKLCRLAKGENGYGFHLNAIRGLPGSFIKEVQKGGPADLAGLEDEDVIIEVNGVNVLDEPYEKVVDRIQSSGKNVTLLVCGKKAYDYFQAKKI

T8: PCLO, Q9Y6V0
T8 sequence (Q9Y6V0 4491-4600, limits assumed, looked up): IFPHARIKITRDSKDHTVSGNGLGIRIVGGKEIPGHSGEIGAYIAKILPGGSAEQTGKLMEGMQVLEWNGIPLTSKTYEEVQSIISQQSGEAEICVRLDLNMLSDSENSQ

T9: RHPN1, Q8TCX5
T9 sequence (Q8TCX5 508-602, limits assumed, looked up): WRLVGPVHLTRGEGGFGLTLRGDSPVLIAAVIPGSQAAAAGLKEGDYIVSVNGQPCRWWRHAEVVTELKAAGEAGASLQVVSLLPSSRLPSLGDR

T10: SNTA1, Q13424
T10 sequence (Q13424 82-180, limits assumed, looked up): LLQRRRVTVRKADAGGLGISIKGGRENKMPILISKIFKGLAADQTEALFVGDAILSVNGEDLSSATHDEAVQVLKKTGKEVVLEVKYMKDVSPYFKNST

T11: SYNJ2BP, P57105
T11 sequence (P57105 8-110, limits assumed, looked up): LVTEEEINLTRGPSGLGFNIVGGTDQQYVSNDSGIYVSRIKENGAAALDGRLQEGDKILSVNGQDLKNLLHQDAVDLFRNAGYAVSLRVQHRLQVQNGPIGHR

T12: TX1BP3, O14907
T12 sequence (O14907 10-122, limits assumed, looked up): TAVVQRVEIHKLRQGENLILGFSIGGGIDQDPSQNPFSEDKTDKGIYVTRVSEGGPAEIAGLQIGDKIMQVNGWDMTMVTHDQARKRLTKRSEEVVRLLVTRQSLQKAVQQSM


How the values were obtained:
Experiment in all cases: holdup assay
Set-up in all cases: key: below the threshold = too weak to quantify, mostly under pKd 3.1 to 4
Details in all cases: plain residues with an end cap or a label only (N-terminal biotin on a linker: ado-ado)
[1] = molecular target: DLG1_2, Q12959
[2] = molecular target: DLG2_2, Q15700
[3] = molecular target: DLG2_3, Q15700
[4] = molecular target: DLG5_1, Q8TDM6
[5] = molecular target: GRID2IP_2, A4D2P6
[6] = molecular target: T1, GRIP1_3, Q9Y3R0
[7] = molecular target: T2, GRIP1_7, Q9Y3R0
[8] = molecular target: GRIP2_7, Q9C0E4
[9] = molecular target: HTRA1, Q92743
[10] = molecular target: Inadl_5, Q8NI35
[11] = molecular target: LIMK2, P53671
[12] = molecular target: T3, LRRC7, Q96NW7
[13] = molecular target: MAGI2_3, Q86UL8
[14] = molecular target: MAGI2_4, Q86UL8
[15] = molecular target: MAST1, Q9Y2H9
[16] = molecular target: T4, MPDZ_5, O75970
[17] = molecular target: T5, MPP7, Q5T2T1
[18] = molecular target: T6, NHERF3_3, Q5T2W1
[19] = molecular target: T7, NHERF3_4, Q5T2W1
[20] = molecular target: T8, PCLO, Q9Y6V0
[21] = molecular target: PDZRN4_1, Q6ZMN7
[22] = molecular target: T9, RHPN1, Q8TCX5
[23] = molecular target: T10, SNTA1, Q13424
[24] = molecular target: T11, SYNJ2BP, P57105
[25] = molecular target: T12, TX1BP3, O14907

Chain of MAGI2_3, Q86UL8 (Q86UL8 600-682): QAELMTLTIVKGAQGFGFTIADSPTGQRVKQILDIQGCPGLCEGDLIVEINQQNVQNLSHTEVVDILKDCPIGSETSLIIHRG
Chain of MAST1, Q9Y2H9 (Q9Y2H9 962-1065): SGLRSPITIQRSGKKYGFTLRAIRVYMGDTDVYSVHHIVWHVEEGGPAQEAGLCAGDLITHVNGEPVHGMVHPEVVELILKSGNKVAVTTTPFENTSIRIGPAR
Chain of HTRA1, Q92743 (Q92743 360-477): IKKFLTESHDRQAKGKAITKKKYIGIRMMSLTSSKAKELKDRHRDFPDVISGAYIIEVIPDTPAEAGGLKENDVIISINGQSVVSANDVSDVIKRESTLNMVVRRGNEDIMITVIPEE
Chain of DLG1_2, Q12959 (Q12959 314-412): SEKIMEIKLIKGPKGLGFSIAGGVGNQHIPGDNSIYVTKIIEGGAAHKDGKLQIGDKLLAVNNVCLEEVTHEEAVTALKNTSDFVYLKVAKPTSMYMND
Chain of GRIP2_7, Q9C0E4 (Q9C0E4 934-1023): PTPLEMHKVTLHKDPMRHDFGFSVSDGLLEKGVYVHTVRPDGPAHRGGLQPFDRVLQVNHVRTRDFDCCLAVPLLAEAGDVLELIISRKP
Chain of DLG5_1, Q8TDM6 (Q8TDM6 617-713): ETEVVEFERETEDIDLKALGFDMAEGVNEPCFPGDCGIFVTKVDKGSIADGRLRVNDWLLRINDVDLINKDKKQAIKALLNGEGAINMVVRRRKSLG
Chain of MAGI2_4, Q86UL8 (Q86UL8 772-865): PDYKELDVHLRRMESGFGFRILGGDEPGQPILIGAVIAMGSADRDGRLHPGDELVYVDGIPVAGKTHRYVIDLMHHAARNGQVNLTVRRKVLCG
Chain of Inadl_5, Q8NI35 (Q8NI35 673-780): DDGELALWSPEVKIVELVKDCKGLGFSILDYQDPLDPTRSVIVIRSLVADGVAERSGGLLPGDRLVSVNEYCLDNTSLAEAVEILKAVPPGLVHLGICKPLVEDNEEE
Chain of GRID2IP_2, A4D2P6 (A4D2P6 272-370): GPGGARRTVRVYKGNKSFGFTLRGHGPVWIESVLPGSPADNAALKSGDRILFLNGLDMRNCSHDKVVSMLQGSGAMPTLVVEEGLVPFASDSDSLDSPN
Chain of PDZRN4_1, Q6ZMN7 (Q6ZMN7 213-318): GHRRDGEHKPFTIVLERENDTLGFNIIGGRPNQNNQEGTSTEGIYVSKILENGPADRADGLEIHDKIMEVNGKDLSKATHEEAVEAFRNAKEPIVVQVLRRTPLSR
Chain of LIMK2, P53671 (P53671 143-248): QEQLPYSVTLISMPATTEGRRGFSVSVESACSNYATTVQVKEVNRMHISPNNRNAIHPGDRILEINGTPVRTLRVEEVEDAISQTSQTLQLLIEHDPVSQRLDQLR

Row | Binder | pKd [1] | pKd [2] | pKd [3] | pKd [4] | pKd [5] | pKd [6] | pKd [7] | pKd [8] | pKd [9] | pKd [10] | pKd [11] | pKd [12] | pKd [13] | pKd [14] | pKd [15] | pKd [16] | pKd [17] | pKd [18] | pKd [19] | pKd [20] | also measured
1 | IKAIVDLTGL [TRAF2, Q12933] | below the threshold | below the threshold | below the threshold | below the threshold | below the threshold | below the threshold | below the threshold | below the threshold | below the threshold | below the threshold | below the threshold | below the threshold | below the threshold | below the threshold | 3.63 | below the threshold | below the threshold | below the threshold | below the threshold | below the threshold | pKd [21]: below the threshold; pKd [22]: below the threshold; pKd [23]: below the threshold; pKd [24]: below the threshold; pKd [25]: below the threshold
2 | SARSRLSSNL [HCN2, Q9UL51] | below the threshold | below the threshold | below the threshold | below the threshold | 4.37 | below the threshold | below the threshold | below the threshold | below the threshold | below the threshold | below the threshold | below the threshold | below the threshold | below the threshold | 4.65 | below the threshold | below the threshold | below the threshold | below the threshold | below the threshold | pKd [21]: 3.53; pKd [22]: 3.92; pKd [23]: below the threshold; pKd [24]: 3.76; pKd [25]: 4.23
3 | GSGAVEMESV [AQP6, Q13520] | below the threshold | below the threshold | below the threshold | below the threshold | below the threshold | below the threshold | below the threshold | below the threshold | below the threshold | below the threshold | below the threshold | below the threshold | below the threshold | below the threshold | 3.65 | below the threshold | below the threshold | below the threshold | below the threshold | below the threshold | pKd [21]: below the threshold; pKd [22]: below the threshold; pKd [23]: below the threshold; pKd [24]: below the threshold; pKd [25]: below the threshold
4 | CLREWCDAFL [BANF1, O75531] | below the threshold | below the threshold | 3.61 | below the threshold | below the threshold | below the threshold | below the threshold | below the threshold | 5.01 | below the threshold | 3.61 | 3.84 | below the threshold | 3.73 | 4.96 | below the threshold | below the threshold | below the threshold | 3.62 | below the threshold | pKd [21]: below the threshold; pKd [22]: below the threshold; pKd [23]: below the threshold; pKd [24]: below the threshold; pKd [25]: 4.62
5 | PPYRHRNTVV [ERBB4, Q15303] | 5.25 | 4.95 | 4.35 | below the threshold | below the threshold | below the threshold | below the threshold | below the threshold | 4.13 | 3.58 | below the threshold | below the threshold | below the threshold | 4.43 | below the threshold | below the threshold | below the threshold | below the threshold | below the threshold | below the threshold | pKd [21]: below the threshold; pKd [22]: 3.6; pKd [23]: 5.32; pKd [24]: 4.36; pKd [25]: 4.13
6 | RRISSLESEV [GRIN2C, Q14957] | 5.51 | 5.11 | 4.44 | below the threshold | 3.54 | below the threshold | below the threshold | below the threshold | 3.82 | below the threshold | below the threshold | 4.05 | 4.11 | 3.95 | 4.54 | below the threshold | below the threshold | below the threshold | 3.66 | below the threshold | pKd [21]: 4.17; pKd [22]: 4.66; pKd [23]: 4.53; pKd [24]: 5.38; pKd [25]: 5
